US20150111836, “CELLULAR APOBEC3 PROTEINS AND MODULATORS THEREOF FOR REGULATING DNA REPAIR PROCESSES AND TREATING PROLIFERATIVE DISEASES” (YISSUM RESEARCH DEVELOPMENT COMPANY OF THE HEBREW …, published 2015)

Assays:
[1] = target: T1, APOBEC3G (A3G) (Homo sapiens, UniProt Q9HC16 SEQ:1-384); test: EMSA; 8 min RT; details: tags: C-terminal Myc-His6, expressed in 293T cells; chain copies: monomer to multimer (stated)
Experimental: (§1) FIG. 2D. A3G end-dependent association with ssDNA was assessed by electro-mobility shift assay (EMSA). S₁₆₀ oligonucleotide ends (3′, 5′, 3′+5′) were annealed to short complementary oligonucleotides (30 nt) and then incubated with A3G or BSA for 8 min at room temperature (RT). Acrylamide gels were stained with SYBR gold nucleic acid stain.

[2] = target: T1, APOBEC3G (A3G); test: EMSA; either 3' or 5' ssDNA terminus required; 5' preference; details: tags: C-terminal Myc-His6, expressed in 293T cells, chain copies: monomer to multimer (stated), 3' end 30 nt duplex
Experimental: as §1

[3] = target: T1, APOBEC3G (A3G); test: EMSA; 8 min 37 C; RPA pre-binding inhibits monomeric complex (FIG. 5C); details: tags: C-terminal Myc-His6, expressed in 293T cells; chain copies: monomer to multimer (stated); label: 3' dATP-biotin (TdT)
Experimental: (§2) FIG. 3B. Electro-mobility shift assay (EMSA). The indicated proteins were incubated with biotinylated SC oligonucleotides (80 nt) for 8 min at 37° C. and resolved by native PAGE. Acrylamide gels were transferred to nylon membranes and probed by enhanced chemiluminescence.

[4] = target: APOBEC3G W285A (Homo sapiens, UniProt Q9HC16 SEQ:1-384); test: EMSA; binding similar to wild type; details: tags: C-terminal His6, expressed in 293T cells; label: 3' dATP-biotin (TdT)
Experimental: as §2

T1 sequence (Q9HC16 whole entry): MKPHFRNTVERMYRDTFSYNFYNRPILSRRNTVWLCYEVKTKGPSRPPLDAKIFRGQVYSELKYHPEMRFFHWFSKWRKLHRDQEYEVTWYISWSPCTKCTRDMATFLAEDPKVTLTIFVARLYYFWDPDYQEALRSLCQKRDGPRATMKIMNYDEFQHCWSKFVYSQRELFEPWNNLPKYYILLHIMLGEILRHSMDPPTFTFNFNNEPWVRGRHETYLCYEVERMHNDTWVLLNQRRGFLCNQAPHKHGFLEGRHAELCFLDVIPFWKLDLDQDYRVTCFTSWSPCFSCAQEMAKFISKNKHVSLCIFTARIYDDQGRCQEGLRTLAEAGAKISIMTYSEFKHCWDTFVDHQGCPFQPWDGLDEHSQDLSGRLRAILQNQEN
Sequence of APOBEC3G W285A (Q9HC16 whole entry W285A): as the sequence (Q9HC16 whole entry) above, with W285A counted along it

B1: S160 (ssDNA)
DNA: GGATTGGTTGGTTATTTGTTTAAGGAAGGAAGAAGGAAGGCCCAATAAGGGAAGGCCCAATAAGTGGGAAGGCCCAATAAGTGAATTAAATAAGTGATTGATAAATAAGTGATTGATAAGTTGATTAAATAGTTGGAAGTTATGTTTGGTAGATTGATGG
binding result [1]: binds

B2: S160 with 3' end double-stranded (mixed)
DNA 1: GGATTGGTTGGTTATTTGTTTAAGGAAGGAAGAAGGAAGGCCCAATAAGGGAAGGCCCAATAAGTGGGAAGGCCCAATAAGTGAATTAAATAAGTGATTGATAAATAAGTGATTGATAAGTTGATTAAATAGTTGGAAGTTATGTTTGGTAGATTGATGG
DNA 2: CCATCAATCTACCAAACATAACTTCCATCA
binding result [2]: binds

B3: SC (ssDNA)
DNA: GGATTGGTTGGTTATTTGTTTAAGGAAGGTGGATTAAAGGCCCATAAGGTGATGGAAGTTATGTTTGGTAGATTGATGG
binding result [3]: binds | binding result [4]: binds
